Test results as given in publication PMC5045167, “STN1 OB Fold Mutation Alters DNA Binding and Affects Selective Aspects of CST Function”.

Legend:
CST(WT) (CTC1-STN1-TEN1) [1] = molecular target: T1, CST(WT) (CTC1-STN1-TEN1) (human, UniProt Q2NKJ3;Q9H668;Q86WV5 1-1217;1-368;1-123); test: EMSA; 25 mM Tris pH 8.0, 1 mM DTT, 150 mM NaCl; EMSA 0.1 nM DNA, 30 min RT; filter binding 0.01 nM DNA, 18 h 4 C; crosslinking 20 nM CST, 2 nM DNA, UVA on ice; conditions: protein: recombinant; tags: N-terminal FLAG-CTC1, His-STN1; TEN1 untagged (Methods says all tags N-terminal); copies: 1;1;1; label: 32P
T1 sequence (Q2NKJ3 whole entry, chain 1 of 3): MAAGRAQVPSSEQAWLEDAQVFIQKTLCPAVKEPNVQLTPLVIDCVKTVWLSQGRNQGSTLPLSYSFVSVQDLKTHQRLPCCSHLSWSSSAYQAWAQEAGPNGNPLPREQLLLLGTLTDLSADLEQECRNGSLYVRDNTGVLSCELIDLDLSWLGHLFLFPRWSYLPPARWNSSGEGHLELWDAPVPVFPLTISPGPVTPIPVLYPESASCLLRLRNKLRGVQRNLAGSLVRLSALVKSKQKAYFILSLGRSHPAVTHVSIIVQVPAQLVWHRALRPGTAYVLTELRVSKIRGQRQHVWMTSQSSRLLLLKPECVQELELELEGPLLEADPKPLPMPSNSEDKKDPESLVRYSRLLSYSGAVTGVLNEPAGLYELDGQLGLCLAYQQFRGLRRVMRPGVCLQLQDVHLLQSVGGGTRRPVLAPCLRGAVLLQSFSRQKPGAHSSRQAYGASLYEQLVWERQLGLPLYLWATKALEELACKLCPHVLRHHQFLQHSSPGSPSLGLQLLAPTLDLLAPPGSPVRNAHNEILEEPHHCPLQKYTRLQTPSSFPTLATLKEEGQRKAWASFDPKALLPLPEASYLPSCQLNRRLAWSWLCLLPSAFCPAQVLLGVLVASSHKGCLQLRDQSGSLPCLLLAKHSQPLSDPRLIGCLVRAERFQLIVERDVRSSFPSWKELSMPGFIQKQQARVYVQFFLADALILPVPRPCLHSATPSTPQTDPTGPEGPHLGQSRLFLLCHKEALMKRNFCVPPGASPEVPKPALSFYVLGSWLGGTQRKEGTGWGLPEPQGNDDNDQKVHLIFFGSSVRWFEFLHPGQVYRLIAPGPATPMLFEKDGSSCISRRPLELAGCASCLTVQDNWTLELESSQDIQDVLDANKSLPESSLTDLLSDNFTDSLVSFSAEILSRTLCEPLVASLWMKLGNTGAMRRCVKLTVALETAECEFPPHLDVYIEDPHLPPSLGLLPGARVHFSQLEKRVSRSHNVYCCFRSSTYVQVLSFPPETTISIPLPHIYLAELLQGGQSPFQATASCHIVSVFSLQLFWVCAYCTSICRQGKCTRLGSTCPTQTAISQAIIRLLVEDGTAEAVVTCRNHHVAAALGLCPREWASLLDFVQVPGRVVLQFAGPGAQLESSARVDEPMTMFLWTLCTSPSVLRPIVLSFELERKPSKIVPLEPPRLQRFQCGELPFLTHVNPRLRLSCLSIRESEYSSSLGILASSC
T1 sequence (Q9H668 whole entry, chain 2 of 3): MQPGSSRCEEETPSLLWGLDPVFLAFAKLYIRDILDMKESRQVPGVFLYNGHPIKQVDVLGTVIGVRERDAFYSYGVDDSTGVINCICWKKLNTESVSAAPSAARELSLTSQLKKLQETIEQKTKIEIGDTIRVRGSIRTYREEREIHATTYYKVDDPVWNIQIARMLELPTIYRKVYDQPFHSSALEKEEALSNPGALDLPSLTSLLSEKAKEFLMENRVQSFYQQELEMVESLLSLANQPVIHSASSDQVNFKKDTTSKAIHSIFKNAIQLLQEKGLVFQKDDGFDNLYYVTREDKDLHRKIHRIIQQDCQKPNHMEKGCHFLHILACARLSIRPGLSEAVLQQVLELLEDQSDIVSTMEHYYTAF
T1 sequence (Q86WV5 whole entry, chain 3 of 3): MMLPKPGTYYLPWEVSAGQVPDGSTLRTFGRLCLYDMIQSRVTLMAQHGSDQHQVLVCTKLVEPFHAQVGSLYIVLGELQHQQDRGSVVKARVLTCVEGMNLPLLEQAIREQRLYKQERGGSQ

CST(WT) (CTC1-STN1-TEN1) [2] = molecular target: T1, CST(WT) (CTC1-STN1-TEN1); test: UV crosslinking; CTC1 and STN1 crosslinked; 25 mM Tris pH 8.0, 1 mM DTT, 150 mM NaCl; EMSA 0.1 nM DNA, 30 min RT; filter binding 0.01 nM DNA, 18 h 4 C; crosslinking 20 nM CST, 2 nM DNA, UVA on ice; conditions: protein: recombinant; tags: N-terminal FLAG-CTC1, His-STN1; TEN1 untagged (Methods says all tags N-terminal); copies: 1;1;1; label: 32P
CST(STN1-OBM) [3] = molecular target: T2, CST(STN1-OBM) (human, UniProt Q2NKJ3;Q9H668;Q86WV5 1-1217;1-368;1-123, W89A;R139L;Y141A); test: EMSA; similar affinity to CST(WT); 25 mM Tris pH 8.0, 1 mM DTT, 150 mM NaCl; EMSA 0.1 nM DNA, 30 min RT; filter binding 0.01 nM DNA, 18 h 4 C; crosslinking 20 nM CST, 2 nM DNA, UVA on ice; conditions: protein: recombinant; tags: N-terminal FLAG-CTC1, His-STN1-OBM; TEN1 untagged; copies: 1;1;1; label: 32P
T2 sequence (Q2NKJ3 whole entry, chain 1 of 3): as the sequence (Q2NKJ3 whole entry, chain 1 of 3) above
T2 sequence (Q9H668 whole entry W89A/R139L/Y141A, chain 2 of 3): as the sequence (Q9H668 whole entry, chain 2 of 3) above, with W89A, R139L, Y141A counted along it
T2 sequence (Q86WV5 whole entry, chain 3 of 3): as the sequence (Q86WV5 whole entry, chain 3 of 3) above

CST(STN1-OBM) [4] = molecular target: T2, CST(STN1-OBM); test: EMSA; up to 20 nM CST; 25 mM Tris pH 8.0, 1 mM DTT, 150 mM NaCl; EMSA 0.1 nM DNA, 30 min RT; filter binding 0.01 nM DNA, 18 h 4 C; crosslinking 20 nM CST, 2 nM DNA, UVA on ice; conditions: protein: recombinant; tags: N-terminal FLAG-CTC1, His-STN1-OBM; TEN1 untagged; copies: 1;1;1; label: 32P
CST(WT) (CTC1-STN1-TEN1) [5] = molecular target: T1, CST(WT) (CTC1-STN1-TEN1); test: as above; conditions: protein: recombinant; tags: N-terminal FLAG-CTC1, His-STN1; TEN1 untagged (Methods says all tags N-terminal); copies: 1;1;1; label: 32P
CST(WT) (CTC1-STN1-TEN1) [6] = molecular target: T1, CST(WT) (CTC1-STN1-TEN1); test: UV crosslinking; CTC1 and (less efficiently) STN1 crosslinked; 25 mM Tris pH 8.0, 1 mM DTT, 150 mM NaCl; EMSA 0.1 nM DNA, 30 min RT; filter binding 0.01 nM DNA, 18 h 4 C; crosslinking 20 nM CST, 2 nM DNA, UVA on ice; conditions: protein: recombinant; tags: N-terminal FLAG-CTC1, His-STN1; TEN1 untagged (Methods says all tags N-terminal); copies: 1;1;1; label: 32P
CST(WT) (CTC1-STN1-TEN1) [7] = molecular target: T1, CST(WT) (CTC1-STN1-TEN1); test: UV crosslinking; CTC1, STN1 and TEN1 crosslinked; 25 mM Tris pH 8.0, 1 mM DTT, 150 mM NaCl; EMSA 0.1 nM DNA, 30 min RT; filter binding 0.01 nM DNA, 18 h 4 C; crosslinking 20 nM CST, 2 nM DNA, UVA on ice; conditions: protein: recombinant; tags: N-terminal FLAG-CTC1, His-STN1; TEN1 untagged (Methods says all tags N-terminal); copies: 1;1;1; label: 32P
CST(WT) (CTC1-STN1-TEN1) [8] = molecular target: T1, CST(WT) (CTC1-STN1-TEN1); test: UV crosslinking; only CTC1 reproducibly crosslinked; 25 mM Tris pH 8.0, 1 mM DTT, 150 mM NaCl; EMSA 0.1 nM DNA, 30 min RT; filter binding 0.01 nM DNA, 18 h 4 C; crosslinking 20 nM CST, 2 nM DNA, UVA on ice; conditions: protein: recombinant; tags: N-terminal FLAG-CTC1, His-STN1; TEN1 untagged (Methods says all tags N-terminal); copies: 1;1;1; label: 32P
CST(WT) (CTC1-STN1-TEN1) [9] = molecular target: T1, CST(WT) (CTC1-STN1-TEN1); test: filter binding; Kd,app measured, value only in Fig 6C; 25 mM Tris pH 8.0, 1 mM DTT, 150 mM NaCl; EMSA 0.1 nM DNA, 30 min RT; filter binding 0.01 nM DNA, 18 h 4 C; crosslinking 20 nM CST, 2 nM DNA, UVA on ice; conditions: protein: recombinant; tags: N-terminal FLAG-CTC1, His-STN1; TEN1 untagged (Methods says all tags N-terminal); copies: 1;1;1; label: 32P

B1: NonTel-36 (ssDNA)
DNA: AGCGTATCCGTTCAGTTGAGCGTATCCGTTCAGTTG
binding result (CST(WT) (CTC1-STN1-TEN1) [1]): binds

B2: 3'-s4T TelG-18 (ssDNA)
DNA: GGTTAGGGTTAGGGTTAG
modifications: 4-thiothymidine at position 16 (third nt from 3' end)
binding result (CST(WT) (CTC1-STN1-TEN1) [2]): binds

B3: NonTel-48 (ssDNA)
DNA: AGCGTATCCGTTCAGTTGAGCGTATCCGTTCAGTTGAGCGTATCCGTT
binding result (CST(WT) (CTC1-STN1-TEN1) [1]): binds | binding result (CST(STN1-OBM) [3]): binds

B4: NonTel-18 (ssDNA)
DNA: AGCGTATCCGTTCAGTTG
binding result (CST(STN1-OBM) [4]): no binding | binding result (CST(WT) (CTC1-STN1-TEN1) [5]): no binding

B5: 5'-s4T TelG-18 (ssDNA)
DNA: GGTTAGGGTTAGGGTTAG
modifications: 4-thiothymidine at position 3 (third nt from 5' end)
binding result (CST(WT) (CTC1-STN1-TEN1) [6]): binds

B6: TelG-48 (ssDNA)
DNA: GGTTAGGGTTAGGGTTAGGGTTAGGGTTAGGGTTAGGGTTAGGGTTAG
binding result (CST(WT) (CTC1-STN1-TEN1) [1]): binds | binding result (CST(STN1-OBM) [3]): binds

B7: 3'-s4T TelG-48 (ssDNA)
DNA: GGTTAGGGTTAGGGTTAGGGTTAGGGTTAGGGTTAGGGTTAGGGTTAG
modifications: 4-thiothymidine at position 46 (third nt from 3' end)
binding result (CST(WT) (CTC1-STN1-TEN1) [7]): binds

B8: 5'-s4T TelG-48 (ssDNA)
DNA: GGTTAGGGTTAGGGTTAGGGTTAGGGTTAGGGTTAGGGTTAGGGTTAG
modifications: 4-thiothymidine at position 3 (third nt from 5' end)
binding result (CST(WT) (CTC1-STN1-TEN1) [8]): binds

B9: TelG-18 (ssDNA)
DNA: GGTTAGGGTTAGGGTTAG
binding result (CST(WT) (CTC1-STN1-TEN1) [9]): binds
